{
  "source": "patent US20070003547A1",
  "about": "(published 2007)",
  "binders": {"B1": {"name": "humanized D1.3 Fab (Fab, V domains shown)", "VH": "QVQLQESGPGLVKPSETLSLTCTVSGGSVSGYGVNWIRQPPGKGLEWIGMIWGDGNTDYNSSLKSRVTISVDTSKNQFSLKLSSVTAADTAVYYCARERDYRLDYWGQGTLVTVSS", "VL": "AIRMTQSPFSLSASVGDRVTITCRASGNIHNYLAWYQQKPAKAPKLFIYYTTTLADGVPSRFSGSGSGTDYTLTISSLQPEDFATYYCQHFWSTPRTFGGGTKVEIKR"}, "B2": {"name": "Fab fragment comprised of mouse 9.3 variable domains and human constant domains (Fab, V domains shown)", "VH": "EVKLQQSGPGLVTPSQSLSITCTVSGFSLSDYGVHWVRQSPGQGLEWLGVIWAGGGTNYNSALMSRKSISKDNSKSQVFLKMNSLQADDTAVYYCARDKGYSYYYSMDYWGQGTSVTVSS", "VL": "DIELTQSPASLAVSLGQRATISCRASESVEYYVTSLMQWYQQKPGQPPKLLIFAASNVESGVPARFSGSGSGTNFSLNIHPVDEDDVAMYFCQQSRKVPYTFGGGTKLEIKR"}, "B3": {"name": "(Fab)'2 fragment of mouse BCF2 IgG (other)", "chain 1": "DIVLTQSPVSLAVSVGQRATISCKASQSVDFDGESYMNWYQQKPGQPPKLLIYVVSNLESGIPARFSGSGSGTDFTLNIHPVEEEDAATYYCQQSNEDPLTFGAGTNLELKR", "chain 2": "EVQLQQSGPELVKPGASMKISCKVSGYSFTDHTMNWVKQSHGKNLELIGLINPFNGDATYKQKFTGKATLTVDRSSSTAFMELLSLTSEDSAVYYCARYGNYAMDYWGQGTSVTVSS"}, "B4": {"name": "humanized BCF2 Fab fragment (Fab, V domains shown)", "VH": "EVQLVQSGAEVKKPGATVKISCKVSGYTFTDHTMNWVQQAPGKGLEWMGLINPFNGDATYKQKFQGRVTITADTSTDTAYMELSSLRSEDTAVYYCARYGNYAMDYWGQGTTVTVSS", "VL": "DIVMTQTPLSLSVTPGQPASISCKASQSVDFDGESYMNWYLQKPGQPPQLLIYVVSNLESGVPDRFSGSGSGTDFTLKISRVEAEDVGVYYCQQSNEDPLTFGGGYKVEIKR"}},
  "key": {"[1]": {"target": "T1, chicken lysozyme (chicken, UniProt P00698 19-147)", "T1 construct": "The assay paragraph says only 'lysozyme'; also called chicken lysozyme antigen", "assay": "fluorescence quench titration (FIG. 7 legend)"}, "[2]": {"target": "CD28Ig (human, UniProt P10747 19-152)", "assay": "ELISA, CD28Ig coated plates, anti-human k conjugate"}, "[3]": {"target": "scorpion toxin (Centruroides noxius, UniProt P01495 17-82)", "assay": "BIAcore SPR, toxin immobilized, antibody in solution, from kinetic rate constants"}},
  "data": [
    {"binder": "B1", "values": [
      {"measurement": "Ka", "setting": "[1]", "result": "> 1e+08", "unit": "M⁻¹"}
    ]},
    {"binder": "B2", "values": [
      {"measurement": "EC50", "setting": "[2]", "result": 20, "unit": "nM"}
    ]},
    {"binder": "B3", "values": [
      {"measurement": "Kd", "setting": "[3]", "result": 10, "unit": "nM"}
    ]},
    {"binder": "B4", "values": [
      {"measurement": "Kd", "setting": "[3]", "result": 140, "unit": "nM"}
    ]}
  ]
}
